Where a SMILES comes first, the peptide text is derived from it. Where no end group is shown, it is not given here. [ ]: non-standard residue; d: D form.
What was measured:
human FOXP3 (FOXP3-6His) = biological target: T1, human FOXP3 (FOXP3-6His) (Homo sapiens, UniProt Q9BZS1); assay: Peptide binding to FOXP3 by surface plasmon resonance (SPR); details: peptides 1-20 μM; ratio to p60 (SEQ ID NO: 1)
T1 construct: 6xHis (C); made in house; host or cells: E. coli BL21 (DE3)
T1 sequence (Q9BZS1 1-431): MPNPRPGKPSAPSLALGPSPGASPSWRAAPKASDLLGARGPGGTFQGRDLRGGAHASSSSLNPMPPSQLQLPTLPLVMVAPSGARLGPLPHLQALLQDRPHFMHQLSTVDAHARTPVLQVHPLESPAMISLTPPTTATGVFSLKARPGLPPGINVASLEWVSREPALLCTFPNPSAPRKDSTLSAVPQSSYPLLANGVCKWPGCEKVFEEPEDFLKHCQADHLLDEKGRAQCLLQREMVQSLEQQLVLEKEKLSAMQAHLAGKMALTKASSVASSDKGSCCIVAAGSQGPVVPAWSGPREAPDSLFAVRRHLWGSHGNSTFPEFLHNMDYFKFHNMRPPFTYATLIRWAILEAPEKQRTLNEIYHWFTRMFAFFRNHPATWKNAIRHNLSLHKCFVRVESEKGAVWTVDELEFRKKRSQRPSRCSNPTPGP
Description: (§1) Plasmid pET20b FOXP3-His was generated to produce the human FOXP3 tagged with 6 histidines at the C terminus of the protein. Briefly, plasmid pDEST15-FOXP3 (provided by Dr. Casal, Madrid, Spain) was used as template to amplify FOXP3 by PCR using the primers Upper FOXP3 Ndel catatgcccaaccccaggc (SEQ ID NO: 55) and Lower FOXP3 […] (SEQ ID NO: 56). The resulting fragment was subcloned in pET20b at Ndel and NotI sites. pET45b His-Runx1 was obtained by PCR of activated human CD4 T cells obtained from healthy volunteers (after the signature of an informed consent) using the primers Upper Runx1 atgcgtatccccgtagatg (SEQ ID NO: 57) and Lower Runx1 […] (SEQ ID NO: 58) and the fragment was cloned in pcDNA3.1. Then, pET45b and pcDNA3.1-Runx1 were digested with BamHI and NotI and ligated to obtain pET45b-Runx1. Plasmids were used to transform BL21 cells (DE3; Novagen, Schwalbach, Germany) for the expression of the recombinant protein. The transformed BL21 cells were grown in LB medium at 37° C. (1 liter of final culture medium) (with ampicilin 0.1 mg/ml). Once the OD of the culture was between 0.5 and 1.0, IPTG (0.4 mM, final concentration) was added. Bacteria were then cultured overnight in agitation and centrifuged for 10 min at 8000 rpm. Cell pellet was then resuspended in 4 ml Tris-HCl 0.1 M and frozen at −80° C. Cell pellet was then thawed and incubated with lisozyme (25 KU) and a protease inhibitor cocktail for 15 min at 30° C. before cell lysis induced with a French-press. The resultant pool was then centrifuged during 20 min at 11.000 rpm). The recombinant protein was purified from the soluble fraction of French-press cell extracts by affinity chromatography (Histrap, Pharmacia) following manufacturer's instructions and using an FPLC platform (AKTA, Pharmacia). Plasmid pDEST15-FOXP3 encoding the fusion protein GST-FOXP3 (GST fused to the isoform A from human FOXP3 gene), was transformed into BL21 cells for the expression of the recombinant protein. GST-FOXP3 protein was purified from the soluble fraction of cell extracts obtained, as described above, by affinity chromatography (GSTrap; Amersham, Piscataway, N.J.) using a fast protein liquid chromatography platform (AKTA; Amersham) following manufacturer's instructions. The eluted proteins were desalted using Hitrap desalting columns (Pharmacia) and analyzed by SDS-PAGE using Coomassie blue (Bio-Safe Coomassie reagent; Bio-Rad, Hercules, Calif.) and by Western blot.
Screening of peptide binding to FOXP3 was performed by surface plasmon resonance (SPR) using ProteOn XPR36 (Bio-Rad, Hercules Calif., USA) optical biosensor. Recombinant protein FOXP3-6His was produced and purified from E. coli as disclosed in previous section and was immobilized covalently onto a GLM sensor chip (176-5012, Bio-Rad) using sulfo-NHS and EDC (Bio-Rad) coupling reagents and the manufacturer's instructions. After protein immobilization, chip surface was treated with ethanolamine to deactivate the excess of reactive esters.
Individual solutions of the peptides to be tested (1-20 μM) were injected by triplicate in running buffer (Phosphate buffered saline, 0.005% (v/v) Tween 20, pH 7.4) at a flow of 30 μl/min. The interspot signal (obtained in the chip surface not immobilized with protein) was used as reference. The results are summarized in Table 6 below as the ratio Peptide of the invention/p60.

[1] = biological target: T2, FOXP3/FOXP3 homodimerization (Homo sapiens, UniProt Q9BZS1); assay: FOXP3/FOXP3 homodimerization inhibition (Alphascreen); type: biochemical; details: for Dimerization inhibition % inhibition (100 μM): peptide 100 μM
T2 construct: made in house; host or cells: E. coli BL21 (DE3)
T2 sequence (Q9BZS1 1-431): T1 sequence (Q9BZS1 1-431)
Description: as §1
(§2) It has been described that dimerization of FOXP3 is required for its function as a transcriptional regulator. Moreover, interaction between FOXP3 and the transcription factor Runx1, is crucially required for normal hematopoiesis including thymic T-cell development, but also for Treg suppressor activity (Reviewed in Lozano et al, Front Oncol. 2013, 3:294). Both activities are mediated by the intermediate region of Foxp3, which is the area of interaction between P60 and Foxp3. Thus, we studied the effect of P60 and their mutants on the FOXP3/Runx1 heterodimerization, as well as FOXP3/FOXP3 homodimerization by Alphascreen technology according to the manufacturer's instructions (Perkin Elmer, Benelux). AlphaScreen™ is a bead-based technology that is designed to measure the proximity of donor and acceptor beads conjugated to biomolecules of interest.
To measure FOXP3/FOXP3 homodimerization, recombinant Foxp3 was expressed with a Histine tag as disclosed in section (1) above, and captured by Nickel chelate Acceptor beads (Cat. AL108 Perkin Elmer) following manufacturer's instructions. The other version of recombinant FOXP3, expressing a GST tag (prepared as disclosed in section (1) above), was captured by Glutathione Donor beads (Perkin Elmer Cat. 6765300), following manufacturer's instructions. When the two proteins interacted together, the Donor and Acceptor beads come into proximity. Excitation of the Donor beads results in emission of light from the Acceptor beads. […]

[2] = biological target: T3, FOXP3/Runx1 heterodimerization (Homo sapiens, UniProt Q9BZS1); assay: FOXP3/Runx1 heterodimerization inhibition (Alphascreen); type: biochemical; details: for Foxp3-Runx1 Inhibition % inhibition (100 μM): peptide 100 μM
T3 construct: made in house; host or cells: E. coli BL21 (DE3)
T3 sequence (Q9BZS1 1-431): T1 sequence (Q9BZS1 1-431)
Description: as §1, §2
To measure Foxp3-Runx1 interactions, Foxp3-GST and […] proteins were used.
Recombinant Runx1 expressed in E. Coli with a hexa-histidine tag (obtained as disclosed in section (1) above) was captured by nickel chelate acceptor beads following manufacturer's instructions, whereas the recombinant FOXP3 expressed with a GST tag was captured by glutathione donor beads (Perkin Elmer) following manufacturer's instructions. His-tagged Runx1 (46 nM final concentration) was incubated with 100 nM GST-FOXP3 and the peptides to be tested (added at different concentrations from 1 to 100 μM) for 1 h at room temperature. […]

[3] = tested on: murine Treg (CD25+ T cells); assay: In vitro Treg suppression assay ([3H]-thymidine, anti-CD3); type: cell-based, BALB/c mice
Method: Spleen was harvested from BALB/c mice (Harlan Laboratories) and homogenized with a 1-ml syringe through a 100-μm cell strainer into a 50-ml conical tube and rinsed two times with PBS (Calcium free) to recover all cells. Cell homogenate was centrifuged at 300×g for 10 min and resuspended homogenate in 1 ml ACK Lysis buffer solution per spleen. Gently swirled for 2 min and then the reaction was quenched by adding 12 ml of PBS.
Cells were centrifuged at 300×g for 10 min and purification of CD25− and CD25+ cells was carried out using magnetic beads (Miltenyi, CD25 microbead kit MOUSE, Ref 130-091-072)), following manufacturer's instructions. After labelling the cells, they were purified using Automacs-Pro device following manufacturer's instructions. Negative fraction corresponded to CD25− cells, which was used as effector Tconv cells. Positive fraction corresponded to CD25+ T cells that was used as Treg cells. Flow cytometry using anti-CD25-APC labeled and anti-CD4-FITC labelled antibodies was used to confirm the purity of isolated cells. Foxp3 expression was analyzed using the anti-Foxp3 staining antibody labelled with APC according to manufacturer's instructions (eBioscience). Purified cells were washed, resuspended in culture medium and diluted in T-cell culture medium (RPMI 1640, supplemented with 10% Fetal bovine serum and antibiotics) at a concentration of 2×10^5/ml (for Tregs) and 2×10^6/ml (for Tconv), for the assay (See below)
The first in vitro assays to measure regulatory T-cell (Treg) function were described by two groups over a decade ago. […] With this knowledge, it was shown that CD4+CD25+ T cells could potently suppress the proliferation of activated CD4+CD25− and CD8+ T cells when the populations were cocultured in vitro. The following protocol describes a basic type of in vitro Treg suppression assay where Treg function is measured in the absence of antigen-presenting cells (APCs). In this protocol, activation is mediated by anti-CD3 antibodies and includes only two cell types, the target Tconv and Tregs. In this protocol, the experiment is setup in a 96-well round-bottom plate in a total volume of 200 μl. All reagents are prepared at four times their desired final concentration and added to assay in 50 μl such that the total volume is 200 μl, thus obtaining the desired final concentration of reactives. Purified Tregs and Tconv prepared as described above were diluted and adjusted in T-cell culture medium to 2×10^5/ml and 2×10^6/ml, respectively. In round-bottom 96-well plate, Tregs and Tconv were added in 50 μl of culture media each (RPMI 1640, supplemented with 10% Fetal bovine serum, and antibiotics). Anti-CD3 antibody was added in 50 μl (final concentration will be 2.5 μg/ml) as a stimulus to induce T cell proliferation. 50 μL of each one of the peptides to be tested were added in the corresponding wells at a concentration of 100 μM and those which provided the best results were tested again at lower concentrations to determine the IC50 value. The final volume was 200 μl in all wells. Tconv alone, Tconv plus anti-CD3, Tconv+anti-CD3+ Treg or Tconv+anti-CD3+Treg+peptides were tested by quadruplicate. Tconv plus anti-CD3 with no Treg was used to determine maximum proliferation of Tconv whereas Tconv+anti-CD3+ Treg was used to determine Treg inhibition. Plates were incubated at 37° C., 5% CO2 for 72 h and then pulsed with 0.1 μCi [^3H]-thymidine (in 25 μl of culture medium per well). After 8 h of incubation, cell cultures were harvested with a cell harvester (Perkin Elmer) and using unifilter plates. Plates were then dried at 50° C., and scintillation reagent (25 μl)(Microscint, Perkin Elmer) was added to each well. Counts per minute (cpm) were determined with a direct beta counter (TopCount, Perkin Elmer).
The results of in vitro Treg suppression assays are most commonly reported as cpm when [^3H]-thymidine is incorporated into proliferating cells. […]

CT26 tumor cells = assay: Anti-tumor vaccination experiment (AH1 in IFA), CT26 challenge; type: in vivo, BALB/c; details: 10 nanomol/mice i.p. daily during 10 days after AH1/IFA; day 30 after injection of CT26
Method: For anti-tumor vaccination experiments, BALB/c animals immunized with 50 nanomol/mice of peptide AH1 emulsified in incomplete Freund adjuvant (IFA) (Casares et al., 2010, supra), were treated intraperitoneally with 10 nanomol/mice of the indicated Treg inhibitory peptide SEQ ID NO: 51 of the invention or with saline daily during 10 days. At day 10, mice were injected s.c. with 10^6 CT26 tumor cells. Tumor size was monitored twice a week with a calliper and it was expressed according to the formula V=(length×width2)/2. Mice were sacrificed when tumor size reached a volume greater than 4 cm^3.

Molecule | Binding to Foxp3 Ratio binding Peptide/p60 (fold change) (human FOXP3 (FOXP3-6His)) | Foxp3-Runx1 Inhibition % inhibition (100 μM) [2] [%] | Dimerization inhibition % inhibition (100 μM) [1] [%] | other results
2 (RDFQSFRKMWPFFAM-NH2; not fully specified (N-terminus)) [compound 2] | 2.4 |  |  | Dimerization inhibition % inhibition (20 μM) ([1]; peptide 20 μM): 80 (20 μM) %
5 (RAFQSFRKMWPFFAM) [compound 5] | 4.1 | 76.0 | 74.3 | 
9 (RWFQSFRKMWPFFAM) [compound 9] | 1.4 |  |  | Treg inhibition - % inhibition (100 μM) ([3]; peptide 100 μM): 210.0%
CSCC[C@H](NC(=O)[C@H](C)NC(=O)[C@H](Cc1ccccc1)NC(=O)[C@H](Cc1ccccc1)NC(=O)[C@@H]1CCCN1C(=O)[C@H](Cc1c[nH]c2ccccc12)NC(=O)[C@H](CCSC)NC(=O)[C@H](CCCCN)NC(=O)[C@H](CCCNC(=N)N)NC(=O)[C@H](Cc1ccccc1)NC(=O)[C@H](CO)NC(=O)[C@H](CCC(N)=O)NC(=O)[C@H](Cc1ccccc1)NC(=O)[C@@H](C)NC(=O)[C@H](CCCNC(=N)N)NC(=O)CNC(C)=O)C(N)=O [compound 14] (Ac-GR[dA]FQSFRKMWPFFAM-NH2; C-terminus assumed) | 3.6 |  |  | inhibition at 2.5 µM ([2]; read-out: Foxp3-Runx1 Inhibition % inhibition (2.5 μM)): 80%; inhibition at 20 µM ([1]; read-out: Dimerization inhibition % inhibition (20 μM)): 90%
RAFQAFRKMWPFFAM (cyclo(R[dA]FQAFRKMWPFFAM); also: R1 and R2 form a birradical linker which is -C(=O)-) [SEQ ID NO: 51, head-to-tail cyclic peptide] |  |  |  | effect on growth of CT26 colon cancer tumor (CT26 tumor cells): prevents the growth of tumor

Continued, in another order:

Binding to Foxp3 Ratio binding Peptide/p60 (fold change) (human FOXP3 (FOXP3-6His)) | Foxp3-Runx1 Inhibition % inhibition (100 μM) [2] [%] | Dimerization inhibition % inhibition (100 μM) [1] [%] | Molecule | other results
1.1 | 74.7 | 89.0 | 19 (RDFQAFRKMWPFFAM) [compound 19] | 
1.1 | 73.9 | 81.3 | 30 (RDFQSFRKMWAFFAM) [compound 30] | 
8.0 |  |  | Ac-GRAFQAFRKMWAFFAM-NH2 (C-terminus assumed) [compound 45] | IC50 [3]: 3000 nM

Source: patent US10654896B2, “FoxP3-binding peptides and uses thereof” (FUNDACIÓN PARA LA INVESTIGACIÓN MÉDICA APLICADA, priority 2016, dated 2020)
